{
  "source": "the DeepSol protein solubility set",
  "data": [
    {"experiment": "soluble on expression in E. coli; label from the status in PepcDB or PDB records", "values": [
      {"sequence": "MSLLSKFKRNKHQQHLAQLPKISQSVDDVDFFYTPATFRETLLEKIASATQRICIVALYLEQDDGGKGILDALYAAKRQRPELDVRVLVDWHRAQRGRIGAAASNTNADWYCRLAQENPGIDVPVYGVPINTREALGVLHFKGFIIDDSVLYSGASLNDVYLHQHDKYRYDRYQLIRNRQMADIMFDWVTQNLMNGRGVNRLDNTQRPKSPEIKNDIRLYRQELRDASYHFQGDANDEQLSVTPLVGLGKSSLLNKTIFHLMPCAEHKLTICTPYFNLPAVLVRNIIQLLRDGKKVEIIVGDKTANDFYIPEDEPFKIIGALPYLYEINLRRFLSRLQYYVNTDQLVVRLWKDDDNTYHLKGMWVDDKWMLLTGNNLNPRAWRLDLENAILIHDPKQELAPQREKELELIRTHTTIVKHYRDLQSIADYPIKVRKLIRRLRRIRIDRLISRILEGHHHHHH", "soluble on expression in E. coli": "soluble"},
      {"sequence": "MSLCQEKEQDIQKEISYAEKHNNQRRIEGLNKALSEVRANCTDSKLRAEHQKKIAEQKEEVAERQRDLAEAKAKGDADKIDKRERKLAEAQDELKKLEHHHHHH", "soluble on expression in E. coli": "not soluble"},
      {"sequence": "MSLKFEKFICNLRQFTLTNGLKRSIAIISLVDKKGNISKGEVAPLPPWSKETLEEAIRQIDAKKSFILNIDWTIENYRDALMHLHLFPSVQFGIESALLSFLDPLKTYSIPVSALLMGSKKEILAQAKLRLQEGYQIAKLKVSQLSFSDAAKLIHQLKDTFRLRIDVNRAWKTEDSLQFFSEYSLDSFDYVEEPFQNPKELSLFSHPLAVDESFPSNFSLQDLETLCSLKSLIYKPTLQGGMTTCLPVYKWAKQRNIEFVLSSSFESELGLSHLISMAARLKLTSPIGIGTYHFLPQTEGPFLISNGQVNLKNLEGHHHHHH", "soluble on expression in E. coli": "not soluble"},
      {"sequence": "MGSDKIHHHHHHMSFNIGLSGIQAASSGLNVTGNNIANAGTVGFKQSRAEFADVYAASVLGSGSNPQGSGVLLSDVSQMFKQGNIDSTNSVLDLAINGNGFFVTSNNGAISYTRAGYFNTDKQDFIVDNNGYRLQGYAVGPNGQLQNGVVTDLKVERANQAPQATSSIQQSYNLNSTLKPPTVTPFDPSDAATYNSSSSLGIYDSQGNSHTMSQFFIKNEPDPNATPPIPENSWTMKVLIDGVNPLDPSNKTPMSFNVTFDASGQMTSVRAPDGSTSGPGFSIDATTNVIQFSPATGNPPTPGTGWIPAASDGKTPPTYAWNGATGAASGISFDMRKTTQYSTAFAQSNPIQDGYTTGQLAGLEIDDTGVIFARYTNGQSKVQGQVVLANFANIQGLTPIGKTSWVQSSESGEPAVGAPRSGTLGALQSGALEASNVDISNELVNLIVHQRNYQANAKTIQTEDAVTQTIINLR", "soluble on expression in E. coli": "not soluble"},
      {"sequence": "MGSDKIHHHHHHMKDMTNLDNFEVGFDIPAKPGMDAAEIQTPCLVLDLDALERNVKKMGDYAKAHGMRHRVHGKMHKSVDVAKLQERLGGAVGVCCQKVSEAEVFVRGGIKDVLVSNQVRDPLKIDRLAQLPKLGSRIIVCVDDLANVADLSAAALRHGTELEVLIEIDCGAGRCGVGTTQDVVAIARAVDAAENLKFTGIQAYQGAMQHLDKYEDRKAKLDIAIEMVESAVQGLKAVGLDPELVSGGGTGSYYFEANSGVYNELQCGSYAFMDADYGRILDQNGQRIDKGEWENAMFILTQVMSHAKADKAIVDAGLKAQSVDSGLPFVHGRDDVEYIKCSDEHGVVADPNGVLKVGDKLRLVPGHCDPTANVHDWYVGVRGGKVECVWPVSARGKAY", "soluble on expression in E. coli": "not soluble"},
      {"sequence": "MSLIKPDHPRLSILRQCALVSLSRSSFYYQEKGESPLNLKLMELIDRQFMETPFYGARQMARHLRNHEGYCVGRKKICRLMAKMGLVPIYQRPRTTKPHPEHVKYPYLLRDLVIDKPNQVWCTDITYIPMRRGFLYLVAIMDWHSRCVLSWRLSNTMEADFCVEALEEALNKFGKPEIFNTDQGSQFTSQSFTETLKEADIKISMDGKGAWTDNVFIERLWRSLKYECVYLHAFETGSKAHHGIGHWIQFYNERRPHSSLGGLSPNSVYETELWSEAAEGHHHHHH", "soluble on expression in E. coli": "not soluble"},
      {"sequence": "MAQENSTVKPTQAELTLLNVLWKMGPATVRQVHDVVSTTQKTGYTTVLKILQIMHEKSLVIRDESNRAHVYAAANSQTQTQSSLIKDLISKAFGGSTSKLVMRAIDDSTSEQEINDIRQLLNSLEK", "soluble on expression in E. coli": "not soluble"},
      {"sequence": "SSSSLVEAAAGLPEKGLMVCKWLGTGSAGYGGYKASEYFFPIDNEEFRENLEDWESTLQSWEKLKNYLEGMHKGPVGNQTRTH", "soluble on expression in E. coli": "soluble"},
      {"sequence": "MGACRRIFKNYEPCELTICVTIICEPRSPPKFDHWKISKPGCPPKIISCSKATNNDVNREKRSRRKLVKKRTPSEVIEKLEEQEGSENCENVPFDKPLLHSDSATLICDEVATSRSPFEISTNEVENVDIQSEPRDRHVSITSMESVAGLGEADDQDDVTILKGLEEVHEIEVDKTVIEESIPNQPKGQRFDLLSNGDVTIPAMIMNDVDGPKKKLLVRRKKKSKTPDSPPQYRDYTETSIYMYIEMDKQNVGEFVWDQQCTRIDALVAPIVELDRMTTPEIPLEIELFD", "soluble on expression in E. coli": "not soluble"},
      {"sequence": "MAHHHHHHMGGCVVSVMAKRNAAQVMPDPRAEALERRRAQCGGNFVQRVPGTESEHASAIYRIAGVTAEQHEAILAAAAARPTFYTTLMRHCAERTDQRVLGYRPVKCVTKEPAPSKSSGSTSEPAKKERLMSITHFDEVVHVTYSEMEERIFHFGAGLAALGVTANGNVSIYLDTCVEWLIGIYGIWSCSAVAATVYANLGEAALAHALHETESQAILCGSVNVANVLKLMKNGVMPQVPIIHVGALPASLDTHGVQVVSFKQVEMIGAAHLEGGAAKGTGPLNDDDLALIMYTSGTTGDPKGVMHTHRTLAAGLHTLEPRVIDLLGQPRPDDVYLSYLPMAHIMEFTITNLFIFRGAFIGFGTPRTLTDTTARPHGDLLTFNPSMLAGVPRIFDTLKKAVEAKLPPVGTLKRQVFDHAYQSRLAAMKEGKDTPFWNEKVFAAPRAVLGSRLRIMLSGGGPLSAATHEFVNVVFGRVVIGYGLTETICVGAIQIPGDTETNVTGLMEPGQEIKLLDIDEYKHTDTPEPRGEMLSRGPYLFKGYYKQPELTREVLDEDGWFHTGDVGSFTADGKMRIVGRVKALAKNCLGEYIALEALEAVYSSNELLQPNGVCVLVHPDKPYITALALTDEARATSFAAKHGIEGTYPALLKDQRFQQAAAISMADTARASNRASFECVKRVRVIDDEWTPENEILTAAQKLKRRVIDAQYAQTIAELFADD", "soluble on expression in E. coli": "not soluble"},
      {"sequence": "MNTGHHKVADTLIDFLHRQFPWVESKKIDFLSYCNELMEKMVSGAYLRWIRSHPASYHRVYKTFMYEESLRLEFVSFEPWLPYFEGKMKKMLEQERPDLIVCTHSFPSRILQQLKRKKVLAIPVVNVYTDFFMNSIWGKRFIDYHFVPHQEAKRELIVKHGIDERRIVVTGIPVHDTFMKAAALEHHHHHH", "soluble on expression in E. coli": "not soluble"},
      {"sequence": "MGSDKIHHHHHHMIITVINGSPRKNGATSKVLTYLYKDIERLIPDVKINYFDLSEVNPSYCIGCLNCYKMGKCINQNDKVEYIHDIITKSDGVIFGSPTYGSSVTGLFKVFTDRAHMMLERLLYRKPCIAVTTYENARGSKAISFIKSMVLDSGGYVCGSLSIKTGFNQNPITEKVESKIQKVSKKFIYCIEEKKNPPVLSQIYNFIAINAVLKPMAFKDIEQYKGIIDRWEEQGII", "soluble on expression in E. coli": "not soluble"},
      {"sequence": "MSLPSAQAPSLLNPTDDFAALGNIAWLWMNSPMHRDWPVHLLARNTLAPIQLGQYILLRCNDVPVAYCSWALMDADTELSYVMAPSSLGGNAWNCGDRLWIIDWIAPFSRDDNRALRRALAERHPDSVGRSLRVRRGGDTARVKEYRGRALDAAAARAQLDRYHAELIAGLRASNGGYAPREGHHHHHH", "soluble on expression in E. coli": "not soluble"},
      {"sequence": "MPTLGFRFRAYTDEQTLRALKAQLKLACKIYNTLRWADIYFYQRDGKGLTQTELRQLALDLRKQDDEYKQLYSQVVQQIADRYYEAKKRFFEGLARFPKEKKPHKYYSLVYTQSGWKILHVREIRKGSKKNKKKLITLKLSNLGTFKVIVHRDFPLDKVKRVVVKLTRSERIYITFVVEGYEFPKLPNTGKVVAIDVGVEKLLVTPDGEYFPNLRPLEKALWKVKHLHRELSRKKFLSNNWFKAKVKLARAYEHLKNLRSDLYMKLGKWFAEHYDVVVMEGIHAKQLVGKSLRSLRRRLSDVGFGELRDVLKYQLEKYGKKLILVNPAYTSKTCARCGYVKNDLSLSDRVFVCPNCGWIADRDYNASLNILKGAGSERSLVPVELRPLPVPALRYWHGRAVKQEAPSFMRGLEHHHHHH", "soluble on expression in E. coli": "soluble"},
      {"sequence": "MAHTGRMFKIEAAEIVVARLPLKFRFETSFGVQTHKVVPLLILHGEGVQGVAEGTMEARPMYREETIAGALDLLRGTFLPAILGQTFANPEAVSDALGSYRGNRMARAMVEMAAWDLWARTLGVPLCTLLGGHKEQVEVGVSLGIQADEQATVDLVRRHVEQGYRRIKLKIKPGWDVQPVRATREAFPDIRLTVDANSAYTLADAGRLRQLDEYDLTYIEQPLAWDDLVDHAELARRIRTPLCLDESVASASDARKALALGAGGVINLKVARVGGHAESRRVHDVAQSFGAPVWCGGMLESGIGRAHNIHLSCLSNFRLPGDTSSASRYWERDLIQEPLEAVDGLMPVPQGPGTGVTLDREFLATVTEAQEEHRA", "soluble on expression in E. coli": "soluble"},
      {"sequence": "MGSDKIHHHHHHMKPIDIKENKNPVESAQFGKTQDEPLSDKTHVQISDEATQWLLTIEEDDSENNQQALNAWLSLSAQHKKVYQQLQTLWEVADELPVDLFSEDLLGLSMTPSSAVNTSSRVNPYALKKESILAKFISFFTLRKTMYTASFASVIFATFITFTQYNREMVTTDKPLQVASSSTLRTNEYQTKLGEHKTITAQDGSIIVLAAKSQVFIDYSANRRDIHLLYGEALFTVEKDKERPFIVHNHGRSVQALGTIFNVRESKSAMQVSVLEGIVEVNVEPEVKSKVTNSSDKNQVATLVAGQALELDSLGQFSTTYAIEVNERMAWQDGRLNYVNTDLANVIFDLKRYSTLSIHIPNKQVANMGYTGSVIYDKVDDWLIALPYIFPVEVQRHGNSVVIVKRKE", "soluble on expression in E. coli": "not soluble"},
      {"sequence": "MSLKVSVIIPTYNERENLEELFSRIDNALQGLNYEIVVVDDDSPDRTWEKAQELSSKYPVKVIRRTKEKGLSSAVIRGFKEASGDVFVVMDADLQHPPEVIPKLIEAIKNGSDIAIGSRYVKGGKVENWPFYRKLISKGAIMVGRIALPKIRDIKDPVSGFFALRKEVVEGVELNPIGFKILMEILIKGKYSKVVEVPFTFGIRARGESKLKGKTIFEYLRHIYRLMKWEGEIDREGHHHHHH", "soluble on expression in E. coli": "soluble"},
      {"sequence": "AHHHHHHASAKWVCKICGYIYDEDAGDPDNGISPGTKFEELPDDWVCPICGAPKSEFEKLEDGSGTREIIIDCYLHDMCEGLNIMTVRGSAYLLVGQNVYPLIEGIVPPTLHFYIKEGYLDIYGFWRVEGEEHAAHIRVAIDKVHVVGTSIIVEPHGALENFDASVVIKLDASEKDLEQLKKIINEEKFWTKEEHGEVISTYLEKHLREKRKKKE", "soluble on expression in E. coli": "soluble"},
      {"sequence": "MACTAADVVEEDLMSDRIANAQLRGKVMSAEEAAQFVNHGDKVGVSGFTGAGYPKALPTAIAERAKEAHARGDEYMIDLFTGASTAPDCDGVLAEADALRFRTPYQSDPILRSKINDGTTLYADYHLSESGIYVEQGFFGQMNVAIVEAVRITEEGHIVPSSSVGNNVEYLDNAEKIIIEVNSWQSEELEGMADIYRMNKLPNRQPIPITEAGQRIGTTYIDIDLSKVVAVVETDAPDRNAPFKPLDETSKQIAGHFLDFLEGEVAAGRLTYDGYVMQSGVGNVPNAVMAGLLDSKFENIKAYTEVIQDGMVDLIDAGKMTVASATSFSLSPEYAERMNAEAKNYAQKIILRPQQISNHPEVVRRLGLICTNGLIEADIYGNVNSTNVTGSRMMNGVGGSADFTRNGFISSFITPSVAKGGDISAFVPFVSHVDHTEQDVKVLISEYGYADLRGLAPRQRVEKIIAIAHPDYRPLLQDYYDRALAFAKEKKIMQTPHLLGEALSFHQRFQETGSMKK", "soluble on expression in E. coli": "not soluble"}
    ]}
  ]
}
